Values of other authors in paper PMC6188814.

Molecular target: ALDH7A1 (Homo sapiens) (UniProt P49419)
Test: analytical ultracentrifugation

Kd: 16 µM
Substance: ALDH7A1 (from UniProt P49419)
